Assay results taken from article PMC5712619, “3-Sulfogalactosyl-dependent adhesion of Escherichia coli HS multivalent adhesion molecule is attenuated by sulfatase activity” (The Journal of Biological Chemistry, 2017).

Molecular target: mucin from porcine stomach type II (porcine)
Test: ELISA; as a2, but mucin type II was first treated with supernatant of the sulfatase-deficient B. thetaiotaomicron anSME mutant for 24 h or 72 h

Sequence of mucin from porcine stomach type II (porcine) (main, as listed by the source): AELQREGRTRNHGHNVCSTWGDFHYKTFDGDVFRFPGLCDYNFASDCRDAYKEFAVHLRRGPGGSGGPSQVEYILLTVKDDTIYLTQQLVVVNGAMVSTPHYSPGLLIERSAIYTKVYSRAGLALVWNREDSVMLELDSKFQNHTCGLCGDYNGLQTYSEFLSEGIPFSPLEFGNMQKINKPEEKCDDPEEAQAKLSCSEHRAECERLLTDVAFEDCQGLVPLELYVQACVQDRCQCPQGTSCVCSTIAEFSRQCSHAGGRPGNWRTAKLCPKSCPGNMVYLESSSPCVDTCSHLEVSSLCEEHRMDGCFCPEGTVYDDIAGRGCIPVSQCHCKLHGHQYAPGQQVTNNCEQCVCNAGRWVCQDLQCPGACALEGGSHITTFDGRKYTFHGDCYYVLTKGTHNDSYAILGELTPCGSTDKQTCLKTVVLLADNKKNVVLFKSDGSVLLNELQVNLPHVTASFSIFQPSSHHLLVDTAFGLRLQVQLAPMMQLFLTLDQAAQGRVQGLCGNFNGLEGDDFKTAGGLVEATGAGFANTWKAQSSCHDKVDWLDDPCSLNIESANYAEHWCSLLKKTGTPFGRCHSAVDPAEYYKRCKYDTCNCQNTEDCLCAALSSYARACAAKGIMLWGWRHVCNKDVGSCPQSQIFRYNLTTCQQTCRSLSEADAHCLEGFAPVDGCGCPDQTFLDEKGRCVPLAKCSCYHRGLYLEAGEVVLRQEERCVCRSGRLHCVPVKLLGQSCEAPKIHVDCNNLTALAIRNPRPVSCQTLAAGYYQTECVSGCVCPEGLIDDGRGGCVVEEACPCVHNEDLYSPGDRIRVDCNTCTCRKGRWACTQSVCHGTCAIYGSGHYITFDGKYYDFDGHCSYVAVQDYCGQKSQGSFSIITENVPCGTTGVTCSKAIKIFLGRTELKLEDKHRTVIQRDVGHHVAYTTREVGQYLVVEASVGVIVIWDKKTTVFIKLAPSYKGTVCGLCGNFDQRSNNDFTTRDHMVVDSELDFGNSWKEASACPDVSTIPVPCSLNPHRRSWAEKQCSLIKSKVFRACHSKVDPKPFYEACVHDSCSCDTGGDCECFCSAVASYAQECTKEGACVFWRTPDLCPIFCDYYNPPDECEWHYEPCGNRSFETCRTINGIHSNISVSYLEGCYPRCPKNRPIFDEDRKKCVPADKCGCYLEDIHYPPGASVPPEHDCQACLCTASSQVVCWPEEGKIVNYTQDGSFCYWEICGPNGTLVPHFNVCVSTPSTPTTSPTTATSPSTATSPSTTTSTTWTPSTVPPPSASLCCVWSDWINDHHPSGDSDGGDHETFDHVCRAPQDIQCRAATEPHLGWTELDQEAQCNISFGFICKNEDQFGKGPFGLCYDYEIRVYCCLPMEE

loss of binding as percent of the loss seen with wild-type supernatant (24 h treatment of mucin with anSME mutant supernatant): 25%
loss of binding as percent of the loss seen with wild-type supernatant (72 h treatment of mucin with anSME mutant supernatant): 50%
Substance: GST-MAM^HS (multivalent adhesion molecule from the gut commensal Escherichia coli HS, ΔTM construct) (domain or fragment)
